The source of these data is PMC11596305, “A strategy to design protein-based antagonists against type I cytokine receptors” (PLOS Biology, 2024).

Common to all, as to assay: SPR; steady-state fitting of TPOR binding; further details in S1 Methods (not shown)
Common to all, as to settings: both partners purified
(SPR reads the build-up and loss of mass on a sensor chip optically.)

The target of one assay is buto_a3.
The target in another assay is buto_a3_t2.
Assay [1] addresses Thrombopoietin receptor (TPOR) (UniProt P40238 26-635).

B1: Thrombopoietin receptor (TPOR) (receptor)
chain: QDVSLLASDSEPLKCFSRTFEDLTCFWDEEEAAPSGTYQLLYAYPREKPRACPLSSQSMPHFGTRYVCQFPDQEEVRLFFPLHLWVKNVFLNQTRTQRVLFVDSVGLPAPPSIIKAMGGSQPGELQISWEEPAPEISDFLRYELRYGPRDPKNSTGPTVIQLIATETCCPALQRPHSASALDQSPCAQPTMPWQDGPKQTSPSREASALTAEGGSCLISGLQPGNSYWLQLRSEPDGISLGGSWGSWSLPVTVDLPGDAVALGLQCFTLDLKNVTCQWQQQDHASSQGFFYHSRARCCPRDRYPIWENCEEEEKTNPGLQTPQFSRCHFKSRNDSIIHILVEVTTAPGTVHSYLGSPFWIHQAVRLPTPNLHWREISSGHLELEWQHPSSWAAQETCYQLRYTGEGHQDWKVLEPPLGARGGTLELRPRSRYRLQLRARLNGPTYQGPWSSWSDPTRVETATETAW
modifications: The construct is described only in S1 Methods. The extracellular domain after the signal peptide is assumed as the SPR receptor; glycosylation is possible.
On to B1, for which the Kd is 10.6 ± 1.49 µM in the assay with buto_a3 and 0.88 ± 0.16 µM with buto_a3_t2.

B2: Thrombopoietin (TPO), bacterially expressed (ligand)
chain: SPAPPACDLRVLSKLLRDSHVLHSRLSQCPEVHPLPTPVLLPAVDFSLGEWKTQMEETKAQDILGAVTLLLEGVMAARGQLGPTCLSSLLGQLSGQVRLLLGALQSLLGTQLPPQGRTTAHKDPNAIFLSFQHLLRGKVRFLMLVGGSTLCVRRAPPTTAVPS
modifications: expressed in E. coli, non-glycosylated; N-terminal His tag/thrombin site omitted / The construct is described only in S1 Methods. The extracellular domain after the signal peptide is assumed as the …
In turn, B2 displayed a Kd in assay [1] of 4.09 ± 1.84 µM.

Usually Kd stands for the free concentration of one partner at which half of the binding sites on the other are occupied at equilibrium, for simple one-to-one binding. A high value points to weaker binding.
